Test results as given in patent publication US12459987B2, “Monoclonal antibodies for prevention and treatment of herpes simplex viral infections” (priority 2019, dated 2025).
“Also recorded” adds a separate entry of the source.

How the values were obtained:
[1] = molecular target: human herpesvirus glycoprotein B (gB) (Human herpesvirus 2, UniProt P08666); test: Immunoprecipitation-Mass Spectrometry (IP-MS) target identification; assay type: binding
Method: FIG. 7A-7B. Immunoprecipitation-Mass Spectrometry (IP-MS) was performed to identify the binding targets of 22D10, 33B8, and BMPC-23 antibodies.
IP-MS was performed to identify the targets of 22D10, 33B8, and BMPC-23 antibodies.

[2] = system: HSV-2; test: Passive transfer in vivo protection assay, lethal HSV-2 challenge; parameters: species or system mice
Method: Mice were prime-boost immunized with ΔgD-2 and the spleens, draining lymph nodes or bone marrow were isolated. Germinal center (GC) B cells were then cultured on NB-21.2D9 cells (Nojima cultures). After culture, supernatants were screened for the presence of HSV-lysate binding IgG by ELISA. The V(D)J rearrangements amplified from selected GC B-cell cultures for the B-cell antigen receptor (BCR) repertoire analysis in GC B cell clones among individual mice were sequenced. Then, reconstituted antibodies from selected single GC B cell cultures and from single, bone marrow plasmacytes were evaluated for ability to activate the mFcγRIV in vitro and to protect mice in a passive transfer model.
Both IgG1 and IgG2c forms of 22D10, 33B8, and BMPC-23 antibodies (≥4 mg each) were assessed for reproducibility of in vivo protection assay, and any dependency on Ig isotype for protection. […] To test roles of Ig isotypes on ability to provide protection, IgG1 and IgG2c isotypes of these three antibodies were generated and assessed for ability to activate mFcγRIV signaling (as a measurement for ADCC), and for in vivo protection assay.

[3] = system: HSV-2 G infected cell lysates; test: ELISA binding of recombinant antibodies to HSV-2 G infected cell lysates; parameters: species or system HSV-2 G strain; conditions: for Binding to HSV-lysate: Table 3 summary
Method: Binding of recombinant antibodies to HSV-2 G lysates was tested by ELISA. Both heavy and light chain V(D)J rearrangements were amplified from selected single B-cell culture wells (22D10, 32H6, 33B8, and 35H7) by standard RT-PCR. These cloned V(D)J rearrangements were introduced into expression vectors. Recombinant antibodies were obtained by co-transfection of these expression vectors into Expi293F cells. ≥4 mg of purified IgGs was obtained (not shown). […]
Briefly, mice were vaccinated with ΔgD-2 and then 16 days after vaccination, the draining, inguinal lymph nodes were harvested. GC B cells were isolated from these tissues and were cultured in Nojima cultures. Although overall cloning efficiency of GC B cells from these (shipped) tissues was lower than those from freshly isolated tissues (6% vs. 20%), 50 GC clones were obtained that were specific to HSV-2 G strain (HSV-2 G or HSV2-G) lysate. GC B cells from inguinal lymph nodes of mice vaccinated with ΔgD-2 were sorted directly into 96-well plates (1 cell/well). These GC B cells were then cultured in the presence of NB-21.2D9 feeder cells. After culture, presence of IgG was first determined by ELISA, and then the reactivity of culture supernatant IgG against HSV-2 G lysates (HSV-2 G) and uninfected Vero lysates were tested by ELISA.
Based on the obtained V(D)J sequences from each B-cell culture, paired heavy and light chains were re-expressed (as recombinant mouse IgG1 and IgG2c antibodies) in Expi293F cells (Kuraoka et al. Immunity 2016; DiLillo et al. Nature Medicine 2013). […] As expected, all recombinant antibodies reacted specifically with HSV-2 G lysates (FIG. 3). […] Binding of recombinant antibodies to HSV-2 G lysates was tested by ELISA. Both heavy and light chain V(D)J rearrangements were amplified from selected single B-cell culture wells (22D10, 32H6, 33B8, and 35H7) by standard RT-PCR. These cloned V(D)J rearrangements were introduced into expression vectors. Recombinant antibodies were obtained by co-transfection of these expression vectors into Expi293F cells. ≥4 mg of purified IgGs was obtained (not shown). […] These recombinant antibodies (≥4 mg each) were tested for identification of reacting antigen(s), in an in vitro FcγRIV activation assay (Promega FcγRIV ADCC Reporter Bioassay)(FIG. 4), and in vivo protection assay. […]

[4] = molecular target: glycoprotein B of HSV-1 (gB-1) (Human herpesvirus 1, UniProt P10211); test: Luminex multiplex assay, binding to gB-1; conditions: Table 3 summary
Method: FIGS. 9A and 9B are graphs of median fluorescence intensity (MFI) versus IgG concentration (ng/ml), showing the binding of various recombinant antibodies to gB-1 as measured by Luminex multiplex assay.
BMPC-23 binds HSV-1 gB (gB-1). The gB-1 binding of the antibodies was determined by Luminex multiplex assay. Mixtures of antigen (gB-1)-conjugated microspheres (1,000 counts each) were added to each well of 96-well filter plates (Millipore). After washing with PBS containing 1% BSA, 0.05% Tween 20 and 0.05% NaN3, serially diluted recombinant antibodies (5E7, 19G7, 18G4, 22E10, 3A2, 17G3, 22D10, 32H6, 33B8, 25H7, BMPC-23, and S5V2-29) were added to the plates and incubated for 2 hours at room temperature, with mild agitation of the plates. Samples were diluted in PBS containing 1% cow milk, 1% BSA, 0.05% Tween 20 and 0.05% NaN3. After washing, PE goat anti-mouse IgG was added to the plates and incubated for 1 hour at room temperature with mild agitation. After washing, microspheres were resuspended in PBS containing 1% BSA, 0.05% Tween 20 and 0.05% NaN3 and fluorescent signals from each microsphere were measured in a Bio-Plex® 3D machine.
Finding gB-1 specific HSV antibodies. After Nojima culture (single B-cell culture), HSV-specific antibodies were cloned from germinal center B cells and tested for binding to HSV-1 gB-1 by Luminex multiplex assay as described above. FIGS. 9A and 9B show the gB-1 binding results for 10 antibodies in comparison with BMPC-23. With the exception of BMPC-23, the antibodies in Table 3 were derived from germinal center B cells (lymph nodes) taken 15-17 days after primary vaccination with ΔgD-2. BMPC-23 was derived from bone marrow plasmacytes taken 2 weeks post-boost with ΔgD-2. Nucleotide sequences and amino acid sequences for the heavy-chains and light chains are shown in Table 4, as are the amino acid sequences for the light chain and heavy chain CDR1, CDR2, and CDR3.

[5] = system: uninfected Vero lysate; test: ELISA binding to control uninfected Vero lysate
Method: Binding of recombinant antibodies to HSV-2 G lysates was tested by ELISA. Both heavy and light chain V(D)J rearrangements were amplified from selected single B-cell culture wells (22D10, 32H6, 33B8, and 35H7) by standard RT-PCR. These cloned V(D)J rearrangements were introduced into expression vectors. Recombinant antibodies were obtained by co-transfection of these expression vectors into Expi293F cells. ≥4 mg of purified IgGs was obtained (not shown).
Based on the obtained V(D)J sequences from each B-cell culture, paired heavy and light chains were re-expressed (as recombinant mouse IgG1 and IgG2c antibodies) in Expi293F cells (Kuraoka et al. Immunity 2016; DiLillo et al. Nature Medicine 2013). […] As expected, all recombinant antibodies reacted specifically with HSV-2 G lysates (FIG. 3). […] Binding of recombinant antibodies to HSV-2 G lysates was tested by ELISA. Both heavy and light chain V(D)J rearrangements were amplified from selected single B-cell culture wells (22D10, 32H6, 33B8, and 35H7) by standard RT-PCR. These cloned V(D)J rearrangements were introduced into expression vectors. Recombinant antibodies were obtained by co-transfection of these expression vectors into Expi293F cells. ≥4 mg of purified IgGs was obtained (not shown). […]

[6] = molecular target: gB-1 (Human herpesvirus 1, UniProt P10211); test: Luminex competition: inhibition of binding of BMPC-23 human IgG to gB-1; parameters: species or system HSV-1; conditions: Table 3 summary
Method: FIGS. 10A-10G show the capacity of gB-1 specific mouse monoclonal IgG antibodies to inhibit binding of BMPC-23 human IgG antibodies to gB-1.
Finding BMPC-like antibodies. Nine out of 10 gB-1 specific mouse monoclonal IgG antibodies in FIG. 3 were tested for their capacity to inhibit binding of BMPC-23 human IgG antibodies to gB-1. Serially diluted, gB-1 specific mouse monoclonal antibodies or irrelevant, control mouse antibody (H33Lγ1) were incubated with gB-1 conjugated Luminex beads. After incubation, fixed concentration (2 ng/ml) of BMPC-23 human IgG antibodies were added to each well. After washing, mouse anti-human lgG-PE was added to detect binding of human BMPC-23 antibodies. […] Strong inhibition by HSV010-4 (>95% at 222 ng/ml), HSV010-7 (>90% at 222 ng/ml), and HSV010-34 (>80% at 222 ng/ml), shown in FIGS. 10B, 10F, and 10G, respectively, indicates these antibodies bind epitopes on gB-1 closely overlapping with the one recognized by BMPC-23. Therefore, similar protective efficacy as BMPC-23 is expected from these antibodies (experiments in progress). […] Protective efficacy of these antibodies need to be tested (experiments in progress).

Molecule | Binding target identified by IP-MS [1] | Mice protected from lethal challenge ([2]; IgG2c version, overall results from 2 independent experiments, passive transfer) | in vivo protection ([2]; Table 3 summary) | Protection against lethal HSV-2 challenge ([2]; as IgG2c, passive transfer, overall survival, epithelial and neurological assays) | Binding of recombinant antibodies to HSV-2 G lysates ([3]; ELISA, recombinant antibodies expressed in Expi293F cells) | Binding to HSV-lysate [3] | Target antigens [4] | Binding to control, uninfected Vero lysate [5] | Competition with BMPC-23 [6]
22D10: monoclonal antibody from germinal center B cell; IgH SEQ ID NO: 24, IgL SEQ ID NO: 26 (antibody, V domains shown, 22D10 heavy chain; 22D10 light chain) VH: DVQLQESGPALVKPSQTVSLTCTVTGYSITNGNHWWNWIRQVSGSKLEWLGYIRSSGSSDSNPSLKSRISITRDTSKNQLFLHLNSMTTEDIATYYCARGGGLRHYFDYWGQGTTLTVSSA VL: DIQMTQSPASLSASVGDTVTITCRASGNIHNYLAWYHQKQGKSPQLLVYHAETLTDGVPSRFSGSGSGTQYSLKINSLQPEDFGSYYCQHFWSTPYTFGGGTKLEIKR | human herpesvirus glycoprotein B (gB) | 5/10 | Yes | significant protection; also recorded: provides protection | Retention of HSV-2 G lysate-binding | Yes | (not gB) | did not bind | –
HSV010-13: gB-1 specific mouse monoclonal IgG; IgH SEQ ID NO: 52, IgL SEQ ID NO: 54 (antibody, V domains shown, HSV010-13 heavy chain; HSV010-13 light chain) VH: QVQLQQPGAELVKPGASVKLSCKASGYTFTSYWIHWVKQGPGQGLEWIGMIHPNSGITHYNEKFKTKATLTVDKSSSTAYMQLSSLTSEDSAVCYCARGSSSGSAWFAYWGQGTLVTVSAA VL: DIQMTQSSSYLSESLGGRVTITCKASDHINNWLAWYQQKPGNAPRLLISGATSLETGVPSRFSGSGSGKDYTLSITSLQTEDVATYYCQQYWSSPLTFGAGTKLELKR | – | – | – | – | – | Yes | gB | – | Weak
HSV010-14: gB-1 specific mouse monoclonal IgG; IgH SEQ ID NO: 56, IgL SEQ ID NO: 58 (antibody, V domains shown, HSV010-14 heavy chain; HSV010-14 light chain) VH: QVQLQQPGAELVKPGASVKLSCKASGYTFTSYWIHWVKQRPGQGLEWIGMIHPNSGIAHYSEKFKSTATLTVDKSSSTAYMQLSSLTSEDSSVYYCARGSSSGSAWFAYWGQGTLVTVSAA VL: DIQMTQSSSYLSVSLGGRVTITCKAGDHINNWLAWYQQKPGNAPRLLISGATSLETGVPSRFSGSGSGKDYTLSITSLQTEDVATYYCQQYWSTPLTFGAGTKLELKR | – | – | – | – | – | Yes | gB | – | Weak
HSV010-28: gB-1 specific mouse monoclonal IgG; IgH SEQ ID NO: 60, IgL SEQ ID NO: 62 (antibody, V domains shown, HSV010-28 heavy chain; HSV010-28 light chain) VH: QIQLVQSGPELKKPGETVKISCKASGYTFTTYGMSWVKQAPGKGLKWMGWINTYSGVSTYADDFKGRFAFSLETSASTAYLQINNLKNEDTATYFCAQVNYAMDYWGQGTSVTVSSA VL: DIVMTQSHKFLSTSVGDWVTITCKASQDVSTAVAWFQQKPGQSPKVLIYSASYRYTGVPDRFTGSGSGTDFTFTISSVQAEDLAVYYCQQHYSTPRTFGGGTKLEIKR | – | – | – | – | – | Yes | gB | – | Weak
